Measurements taken from patent US20230272055A1 (Incyte, published 2023).
Substitutions are numbered along the chain they refer to.

T1: human Type 1 mutCALR on Ba/F3 cells expressing MPL and Type 1 mutCALR (human)
T1 chain: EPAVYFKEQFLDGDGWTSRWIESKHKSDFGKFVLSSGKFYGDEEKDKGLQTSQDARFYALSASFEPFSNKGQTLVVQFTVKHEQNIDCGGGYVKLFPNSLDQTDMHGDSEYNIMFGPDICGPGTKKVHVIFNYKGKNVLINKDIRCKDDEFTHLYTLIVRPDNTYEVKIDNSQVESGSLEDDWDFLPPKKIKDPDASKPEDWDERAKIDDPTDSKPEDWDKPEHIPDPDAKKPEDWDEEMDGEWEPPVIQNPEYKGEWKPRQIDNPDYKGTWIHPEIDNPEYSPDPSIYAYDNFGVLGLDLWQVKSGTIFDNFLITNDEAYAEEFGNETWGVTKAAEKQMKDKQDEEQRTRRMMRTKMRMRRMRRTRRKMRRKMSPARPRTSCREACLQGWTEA

T2: human mutCALR on BaF3 cells stably expressing human MPL and human mutCALR (MPL-mutCALR cells) (human)
T2 construct: also called mutant calreticulin
T2 chain: T1 chain

B1: anti-mutCALR antibody clone 36 (antibody, human IgG1, lambda, V domains shown)
VH: QVQLVQSGAEVKKPGATVKISCKVSGYSFTDYFIHWVQQAPGKGLAWVGLVDPEDGETIYAEKFQGRVTITADTSTDTAYMELSSLRSEDTAVYYCATPGGILTDPDAFDIWGQGTMVTVSS
VL: QSALTQPRSVSGSPGQSVTISCAGTGSDVGGYNYVSWYQHHPGKAPKLMIYDVNKRPSGVPDRFSGSKSGNTASLTISGLQAEDEADYYCSSYTSSSTFYVFGTGTKVTVLG
notes: human IgG1
B2: anti-mutCALR antibody clone 6 (antibody, human IgG1, lambda)
heavy: not shown
light: QSALTQPASVSGSPGQSITISCTGTSSDVGGYNYVSWYQQHPGKAPKLMIYEVSNRPSGVSNRFSGSNSGNTATLTINRVEAGDEADYYCQVWDSSNDLLIFGGGTKLTVLGQPKAAPSVTLFPPSSEELQANKATLVCLISDFYPGAVTVAWKADSSPVKAGVETTTPSKQSNNKYAASSYLSLTPEQWKSHRSYSCQVTHEGSTVEKTVAPTECS
notes: human IgG1
B3: anti-mutCALR antibody clone 53 (antibody, human IgG1, lambda, V domains shown)
VH: QVQLVQSGAEVKKPGASVKVSCKVSGYTLTELSMHWVRQAPGKGLEWMGGFDPEDGETIYAQKFQGRVTMTEDTSTDTAYMELSSLRSEDTAVYYCATDIQGLAEFDYWGQGTLVTVSS
VL: QSALTQPRSVSGSPGQSVTISCTGTNTDVGAYIDVSWYQQHPGKAPKLIIYDVSKWPSGVPDRFSGSKSGNTASLTISGLQAEDEADYYCCSYAGNHSFSFGGGTKVTVLG
notes: human IgG1
B4: anti-mutCALR antibody clone 1 (antibody, human IgG1, lambda, V domains shown)
VH: EVQLVQSGAEVKKPGASVKVSCKVSGYTLTELSMQWVRQAPGKGLEWMGGFDPDDGETMYAEKFQGRLTVTEDTSTDTVYMELRSLTSEDTALYFCATSPGYDFFDYWGQGTLVTVSS
VL: SYVLTQPPSVSVAPGKTARITCGGNYIGSKSVHWYQQKPGQAPVLVVYDDGDRPSGIPARFSGSNSGNTATLTISRVEAGDEADYYCQVWDSISDHVVFGGGTKLTVLG
notes: human IgG1
B5: anti-mutCALR antibody clone 2 (antibody, human IgG1, lambda, V domains shown)
VH: B4 VH
VL: B4 VL with V3E, N25D, Y26N, G51S, A59E, I93S, S94I, V97L, V98I, L105V
notes: human IgG1
B6: anti-mutCALR antibody clone 3 (antibody, human IgG1, lambda, V domains shown)
VH: B4 VH with K63R
VL: B4 VL with K16Q, Y26N, G51S, A59E, S75N, I93S, S94N, H96L, V97L, V98I
notes: human IgG1
B7: anti-mutCALR antibody clone 4 (antibody, human IgG1, lambda, V domains shown)
VH: B4 VH
VL: B4 VL with K16Q, Y26N, G51S, A59E, S75N, I93S, S94N, H96L, V97L, V98I
notes: human IgG1
B8: anti-mutCALR antibody clone 44 (antibody, human IgG1, lambda, V domains shown)
VH: EVQLVQSGAEVKKPGSSVKVSCKASGGTFSSYAISWVRQAPGQGLEWMGGIIPIFGTANYAQKFQGRVTITADESTSTAYMELSSLRSEDTAVYYCASSPLRGSGWYWHYYYGMDVWGQGTTVTVSS
VL: SYVLTQPPSVSAAPGKTARISCGGNNIRSKSVHWYQQKAGQAPVLVIYQDSKRPSGIPERFSGSNSGNTATLTISGTQAMDEADYYCQAWDSNTVVFGGGTKLTVLG
B9: anti-mutCALR antibody clone 46 (antibody, human IgG1, lambda, V domains shown)
VH: B8 VH with E1Q
VL: B8 VL with V3E, A12V, S21T, A39P, I47V, A89V, N93S, V95A
B10: anti-mutCALR antibody clone 47 (antibody, human IgG1, lambda, V domains shown)
VH: B8 VH
VL: SYELTQPPSVSVAPGKTARITCGGNKIGTKSVHWYQQKPGQAPVLVIYRDSNRPSGIPERFSGSNSGNTATLTISRAQAGDEADYYCQVWDSSTVVFGGGTKLTVLG

What follows are binders tested against T3, Recombinant MBP-mutCALR Type 1 fusion protein (human) (assay: SPR, IgG captured, 1:1 fit, Exp. 2).
T3 construct: custom made at Cepter; also called recombinant mutCALR protein
Method in brief: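 Antibodies captured via amine-coupled anti-human IgG (Fc) on a CM4 chip; recombinant MBP-mutCALR Type 1 fusion protein as analyte. Run at 25 °C in Tris-buffered saline pH 7.2, 0.005% P20, 1 mM CaCl₂. Multiple-cycle kinetics fitted to a 1:1 binding model.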

In order of falling Kd:
1. B3  17 nM
2. B1  1.22 nM
3. B2  0.538 nM

In order of rising koff:
1. B2  0.00123 s⁻¹
2. B1  0.00166 s⁻¹
3. B3  0.108 s⁻¹

In order of falling kon:
1. B3  6.36e+06 M⁻¹ s⁻¹
2. B2  2.29e+06 M⁻¹ s⁻¹
3. B1  1.36e+06 M⁻¹ s⁻¹

Biological target: T1, human Type 1 mutCALR on Ba/F3 cells …
Test: cell-based or functional assay

In order of rising “IC50, inhibition of pSTAT5” value:
1. B6  0.021 µg/mL
2. B7  0.04 µg/mL
3. B5  0.12 µg/mL
4. B4  0.47 µg/mL
5. B9  3.9 µg/mL
6. B8  7 µg/mL
7. B10  10 µg/mL

Biological target: T2, human mutCALR on BaF3 cells stably …
Test: flow cytometry, BaF3 MPL-mutCALR cells
Method: On the day of the assay, cells were washed and resuspended in assay buffer. Approximately 200,000 cells/well were added to 96-well plates and stained with the indicated concentration of antibodies for 30 minutes on ice. Cells were then washed and stained with goat anti-human secondary conjugated to R-phycoerythrin (R-PE) (Jackson Immuno Research Laboratories) for 30 minutes on ice. The cells were then washed and analyzed by flow cytometry.

In order of rising EC50:
1. B4  0.01 µg/mL
2. B5  0.01 µg/mL

In order of falling “MPL-mutCALR AUC” value:
1. B6  102000
2. B7  74000
3. B5  60400
4. B4  52800

These binders were tested against T3, Recombinant MBP-mutCALR Type 1 fusion … (assay: SPR, IgG captured, 1:1 fit, Exp. 1).

In order of falling Kd:
1. B3  10.2 nM
2. B1  2.95 nM
3. B2  2.57 nM

In order of falling koff:
1. B3  0.00235 s⁻¹
2. B1  0.00205 s⁻¹
3. B2  0.00153 s⁻¹

In order of rising kon:
1. B3  229000 M⁻¹ s⁻¹
2. B2  597000 M⁻¹ s⁻¹
3. B1  695000 M⁻¹ s⁻¹
